Measured values: US20200376136A1 (Regeneron, published 2020)
Positions count from the first letter of the chain named.

T1: human six-transmembrane epithelial antigen of prostate 2 (STEAP2) (human, UniProt Q8NFT2 1-490)
T1 construct: also called hSTEAP2
T1 sequence: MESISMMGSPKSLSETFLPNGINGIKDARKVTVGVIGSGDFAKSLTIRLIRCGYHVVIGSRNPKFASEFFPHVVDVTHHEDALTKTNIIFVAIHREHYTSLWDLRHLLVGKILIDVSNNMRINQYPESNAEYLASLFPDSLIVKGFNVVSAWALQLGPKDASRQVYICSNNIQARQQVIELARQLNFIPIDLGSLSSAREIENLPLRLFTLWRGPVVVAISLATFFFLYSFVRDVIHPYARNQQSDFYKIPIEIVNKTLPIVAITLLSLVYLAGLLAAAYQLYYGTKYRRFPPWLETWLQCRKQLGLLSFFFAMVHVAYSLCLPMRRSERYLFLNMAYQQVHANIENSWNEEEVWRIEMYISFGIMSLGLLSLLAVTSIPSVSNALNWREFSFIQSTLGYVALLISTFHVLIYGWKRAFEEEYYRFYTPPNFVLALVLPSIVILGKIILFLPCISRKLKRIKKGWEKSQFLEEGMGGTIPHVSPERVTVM

B1: H1H11897P2 (antibody, human IgG1, V domains shown)
VH: EVQLVESGGGLVQPGGSLRLSCAVSGFTFSSYAMSWVRQAPGKGLEWVSVISGSGDFTYHADSVKGRFTISRDNSKSTLYLQLNSLRAEDTAVYYCAKKGLRYFDWYDYWGQGTLVTVSS
VL: not shown
B2: H1H11896P2 (antibody, human IgG1, V domains shown)
VH: EVQLVESGGGLVQPGGSLRLSCAASRFTFSSYAMSWVRQAPGKGLEWVSLISGSGGRTWYADSVKGRFTISRDNSKNTLFLQMNSLRAEDTAVYYCAKEGGIFGVVTFFDYWGQGTLVTVSS
VL: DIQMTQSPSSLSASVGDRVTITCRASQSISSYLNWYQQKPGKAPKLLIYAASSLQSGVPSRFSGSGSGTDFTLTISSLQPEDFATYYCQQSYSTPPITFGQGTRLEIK
B3: H1M11243N (antibody, mouse IgG1, V domains shown)
VH: QVQLQQSGPGLVKPSQTLSLTCAISGDSVSSNSAAWNWIRQSPSRGLEWLGRTYYRSKWYNDYAVSVKSRITINPDTSKNQFSLHLNSVTPEDTAVYYCARAGIVVVPGPDIYYYYYYGMDVWGQGTTVTVSS
VL: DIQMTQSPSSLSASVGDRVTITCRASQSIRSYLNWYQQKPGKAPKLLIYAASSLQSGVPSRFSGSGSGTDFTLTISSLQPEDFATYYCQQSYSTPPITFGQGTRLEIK
B4: H2M11163N (antibody, mouse IgG2, V domains shown)
VH: B3 VH with T17A, Q81H, V89M, G103R, D111E, I112V, G119D
VL: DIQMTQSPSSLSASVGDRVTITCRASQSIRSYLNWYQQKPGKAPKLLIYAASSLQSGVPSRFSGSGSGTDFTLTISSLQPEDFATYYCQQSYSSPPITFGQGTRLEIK
B5: H2M11164N (antibody, mouse IgG2, V domains shown)
VH: B3 VH with A23V, S31T, K68R, D76V, F82V, S83A, D111E, I112T, Y118H, M120L
VL: DIQMTQSPSSLSASVGDRVTITCRASQNIRSYLNWYQQKPGKAPKLLIHVASSLQSGVPSRFSGSGSGTDFTLTISSLQPEDFATYYCQQSYSTPPITFGHGTRLEIK
B6: H2M11162N (antibody, mouse IgG2, V domains shown)
VH: QVQLQQSGPGLVKPSQTLSLTCAISGDSVSSNRAAWNWIRQSPSRGLQWLGRTYYRSKWYNDYAVSLRSRITINPVTSKNQVALHMNSVTPEDTAVYYCARAGIVVVPGPETFYYYDHGLDVWGQGTTVTVSS
VL: B5 VL with N28S, K45E, V50A, T85S, T94A, H101Q
B7: BSSTEAP2/CD3-004 (bispecific antibody, IgG4, V domains shown)
VH 1: QVQLVESGGGVVQPGRSLRLSCVASGFTISSYGMNWVRQAPGKGLEWVAVISYDGGNKYSVDSVKGRFTISRDNSKNTLYLQMNSLRAEDSAVYYCARGRYFDLWGRGTLVTVSS
VH 2: EVQLVESGGGLVQPGRSLRLSCAASGFTFADYTMHWVRQGPGTGLEWVSDIGWSGGSLGYADSVKGRFTISRDNAKNSLYLEMNNLRPEDTALYYCVKDKSGYGKFQYGLDVWGQGTTVTVSS
VL: DIQMTQSPSTLSASVGDRVTITCRASQSISSWLAWYQQKPGRAPNLLISKASSLKSGVPSRFSGSGSGTEFTLTVSSLQPDDFATYYCQQYYSYSYTFGQGTKLEIK
B8: BSSTEAP2/CD3-005 (bispecific antibody, IgG4, V domains shown)
VH 1: B6 VH
VH 2: QVQLVESGGGLVHPGRSLRLSCAASGFKFDDYTMHWVRQAPGKGLEWVSDISWNSGSKGYADSVKGRFTISRDNAKDSLYLQMDSLRAADTAFYYCAKDKSGYGHFYYYAMDVWGQGTTVTVSS
VL: B5 VL with N28S, K45E, V50A, T85S, T94A, H101Q
B9: BSSTEAP2/CD3-009 (bispecific antibody, IgG4, V domains shown)
VH 1: B6 VH with A23V, S31T, R33S, Q48E, L67V, M86L, F113Y, D117Y
VH 2: B8 VH 2
VL: B5 VL
B10: BSSTEAP2/CD3-008 (bispecific antibody, IgG4, V domains shown)
VH 1: B3 VH with T17A, Q81H, V89M, G103R, D111E, I112V, G119D
VH 2: B8 VH 2
VL: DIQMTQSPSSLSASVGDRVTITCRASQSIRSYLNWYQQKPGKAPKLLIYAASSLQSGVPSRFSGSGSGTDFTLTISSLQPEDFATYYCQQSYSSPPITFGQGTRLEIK
B11: BSSTEAP2/CD3-001 (bispecific antibody, IgG4, V domains shown)
VH 1: B6 VH
VH 2: EVQLVESGGGLVQPGRSLRLSCAASGFTFDDYSMHWVRQAPGKGLEWVSGISWNSGSKGYADSVKGRFTISRDNAKNSLYLQMNSLRAEDTALYYCAKYGSGYGKFYHYGLDVWGQGTTVTVSS
VL: B5 VL with N28S, K45E, V50A, T85S, T94A, H101Q
B12: BSSTEAP2/CD3-007 (bispecific antibody, V domains shown)
VH 1: B6 VH
VH 2: EVQLVESGGGLVQPGRSLRLSCAASGFTFADYTMHWVRQAPGKGLEWVSDISWNSGSIAYADSVKGRFTISRDNAKNSLYLQMNSLRTEDTAFYYCAKDSRGYGHYKYLGLDVWGQGTTVTVSS
VL: B5 VL with N28S, K45E, V50A, T85S, T94A, H101Q
B13: BSSTEAP2/CD3-006 (bispecific antibody, V domains shown)
VH 1: B6 VH
VH 2: B11 VH 2 with A23V, G59D
VL: B5 VL with N28S, K45E, V50A, T85S, T94A, H101Q
B14: BSSTEAP2/CD3-011 (bispecific antibody, V domains shown)
VH 1: QVQLVESGGGVVQPGRSLGLSCAASGFTFSSYGMHWVRQAPGKGLEWVAVIWYDGSNKYYVDSVKGRFTISRDNSKNTLYLQMNSLRAEDTAVYYCAREGLRFLENYYYYYGMDVWGQGTTVTVSS
VH 2: EVQLVQSGGGLVQPGRSLRLSCAASGFTFADYTMHWVRQTPGKGLEWVSGISWNSGSKDYADSVKGRFTISRDNAKNSLYLQMNSLRTEDTALYYCAKYGSGYGRYFFYAMDVWGQGTTVTVSS
VL: EIVLTQSPGTLSLSPGERATLSCRASQSISSTYLAWYQQRPGQAPRLLIYGASSRATGIPDRFSGSGSGTDFTLTISRLEPEDFAVYYCQQYGTSPYTFGQGTKLEIK
notes: also called BSSTEAP2/CD3-0011
B15: CD3-VH-P (antibody, V domains shown)
VH: B11 VH 2 with A23V, G59D
VL: DIQMTQSPSSLSASVGDSVTITCRASQSINNYLNWYQQKPGKAPKLLIYTASSLLSGVPSRFSGSGSGTDFTLTISGLHPEDFATYFCQQSFSTPPITFGQGTRLDIK
notes: Anti-CD3 antibody from a genetically modified mouse

Molecular target: T1, human six-transmembrane epithelial …
Test: FACS on HEK293 cells (low STEAP2), MFI fold above unstained, average at 100-300 nM antibody
Protocol: (§1) Briefly, 1×10⁵ cells were incubated with 10 μg/ml of anti STEAP2 antibodies, or isotype control antibodies for 30 min on ice in antibody dilution buffer. Following one wash with antibody dilution buffer, cells were incubated with 10 μg/ml of PE conjugated anti-human or antimouse Fc secondary antibodies for 30 min on ice. Following one additional wash, samples were incubated with Cytofix (1% formaldehyde) for 20 minutes. After one final wash, samples were filtered through a Pall 96 well filtration block, run on a Hypercyt® cytometer and analyzed in ForeCyt™ (IntelliCyt, Albuquerque, N. Mex.). Mean fluorescence intensities (MFI) were expressed as fold change above unstained levels (background). The average fold above background at antibody concentrations of 100-300 nM were determined.

Binder | Avg F.A.B (fold above background)
B1 | 16 fold above background
B2 | 7 fold above background

Molecular target: T1, human six-transmembrane epithelial …
Test: FACS on C4-2 cells (endogenous STEAP2), MFI fold above unstained, average at 100-300 nM antibody
Protocol: as §1

Binder | Avg F.A.B (fold above background)
B1 | 29 fold above background
B2 | 6 fold above background

Molecular target: T1, human six-transmembrane epithelial …
Test: FACS titration on C4-2 cells (endogenous STEAP2), 4-parameter fit
Protocol: as §1

Binder | EC50
B3 | 23 nM
B4 | 13 nM
B5 | 3.7 nM
B6 | 4.9 nM

Molecular target: T1, human six-transmembrane epithelial …
Test: cell-based or functional assay

Binder | C4-2 cells depletion EC50
B7 | 0.00311 nM
B8 | 0.00729 nM
B9 | 0.00273 nM
B10 | 0.00411 nM
B11 | 0.00468 nM
B12 | 0.00811 nM
B13 | 0.00393 nM

Molecular target: T2, human CD3 (human, UniProt P07766 23-207; P04234 22-171)
Test: cell-based or functional assay

T2 sequence (P07766 23-207 limits assumed, chain 1 of 2): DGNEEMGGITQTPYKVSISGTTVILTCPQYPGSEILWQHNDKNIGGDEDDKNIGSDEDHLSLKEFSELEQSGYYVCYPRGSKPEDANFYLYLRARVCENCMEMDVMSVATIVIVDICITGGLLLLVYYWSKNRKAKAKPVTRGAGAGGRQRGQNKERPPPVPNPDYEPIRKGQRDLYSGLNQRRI
T2 sequence (P04234 22-171 limits assumed, chain 2 of 2): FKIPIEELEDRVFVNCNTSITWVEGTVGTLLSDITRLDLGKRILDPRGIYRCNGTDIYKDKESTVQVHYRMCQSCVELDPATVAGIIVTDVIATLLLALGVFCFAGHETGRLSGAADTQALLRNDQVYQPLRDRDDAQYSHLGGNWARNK

Binder | T cells activation EC50 [M] (CD69+ of CD2+ T cells)
B7 | 9.4e-13 M
B11 | 1.61e-12 M

Molecular target: T2, human CD3
Test: cell-based or functional assay
Remark: another data set of the same source

Binder | hPBMC Proliferation [M] (EC50, with anti-CD28)
B14 | 8.62e-12 M
B7 | 7.1e-13 M
B8 | 2.76e-12 M
B9 | 3.68e-13 M
B10 | 7.76e-12 M
B11 | 1.6e-10 M
B12 | 8.26e-11 M
B13 | 8.14e-13 M

Molecular target: T3, STEAP2/1 chimeric construct
T3 construct: Expressed on engineered PC3 human prostate cancer cells; also called PC3_STEAP2/1
Test: FACS titration on PC3 cells expressing the STEAP2/1 chimera
Protocol: (§2) Flow cytometric analysis was utilized to determine binding of STEAP2×CD3 bispecific antibodies to Jurkat, PC3_STEAP2/1 chimeric and cynomolgus T cells, followed by detection with a phycoerythrin (PE)-labeled anti-human IgG antibody. […] After incubation, the cells were washed twice with cold PBS containing 1% filtered FBS and a PE-conjugated anti-human secondary antibody was added to the cells and incubated for an additional 30 minutes. Wells containing no antibody or secondary antibody only were used as a control. After incubation, cells were washed, re-suspended in 200 μL cold PBS containing 1% filtered FBS and analyzed by flow cytometry on a BD FACS Canto II.

Binder | EC50
B7 | 79.1 nM
B8 | 31.8 nM
B9 | 42.1 nM
B10 | 68.8 nM
B11 | 3.44 nM
B12 | 5.37 nM
B13 | 12.2 nM

Molecular target: T1, human six-transmembrane epithelial …
Test: FACS on C4-2 cells (endogenous STEAP2), MFI fold above unstained, average at 100-300 nM antibody
Remark: another data set of the same source
Protocol: as §1

Binder | Avg F.A.B (fold above background)
B3 | 116 fold above background
B4 | 256 fold above background
B5 | 360 fold above background
B6 | 365 fold above background

Molecular target: T2, human CD3
Test: FACS titration on Jurkat cells (human CD3)
Protocol: as §2

Binder | EC50
B14 | 8.63 nM
B7 | 0.688 nM
B8 | 14.1 nM
B9 | 4.14 nM
B10 | 1.52 nM
B11 | 7.19 nM
B12 | 0.615 nM
B13 | 3.98 nM

Molecular target: T1, human six-transmembrane epithelial …
Test: FACS titration on C4-2 cells (endogenous STEAP2), 4-parameter fit
Remark: another data set of the same source
Protocol: as §1

Binder | EC50
B1 | > 50 nM
B2 | 21 nM

Molecular target: T2, human CD3
Test: FACS titration of Jurkat cells

Binder | EC50
B15 | 1 to 40 nM
